Details: other: succinylation at K130

| Substance | enzymatic_activity | localisation_or_trafficking | degradation_or_half_life |
| --- | --- | --- | --- |
| superoxide dismutase 2 (SOD2): K130R | decreases | decreases |  |
| superoxide dismutase 2 (SOD2): CPT1A knockdown | decreases | decreases | no change |
| superoxide dismutase 2 (SOD2): ST1326 (CPT1A inhibitor, 10 μM, 48 h) | decreases |  |  |

Source: article PMC11897055
